Source: paper PMC10849882

How the values were obtained:
[1] = target: IMPDH1(595)-S477D (human); assay: cryo-EM structure
[2] = target: IMPDH1(595)-S477D (human); assay: negative stain EM

stoichiometry N [1]: 8
stoichiometry N [2]: 8
Substance: IMPDH1(595)-S477D (enzyme)
